The target in data set [1] is DC-SIGNR neck domain, 7.5 repeat form, His2 tag (human). As to the kind of experiment: SEC. On the technique in general: SEC sorts molecules by how far they enter the pores of the column.
The data set “SEC” concerns the molecule itself. As to the kind of experiment: SEC.

Consider two molecules from publication PMC2680971 (Journal of Molecular Biology, 2009).

As usually defined, the stoichiometry N is a count of units in the complex or per binding partner.

“DC-SIGNR neck domain, 7.5 repeat form, His2 tag (domain or fragment)” showed a stoichiometry N in data set [1] of 4.

B1: DC-SIGNR neck domain, 6.5 repeat polymorphic form, His2 tag (domain or fragment)
chain: KVPSSLSQEQSEQDAIYQNLTQLKAAVGELSEKSKLQEIYQELTQLKAAVGELPEKSKLQEIYQELTRLKAAVGELPEKSKLQEIYQELTRLKAAVGELPEKSKLQEIYQELTRLKAAVGELPEKSKLQEIYQELTELKAAVGELPEKSKLQEIYQELTQLKAAVE
Regarding B1, the “stoichiometry N” value in the data set “SEC” amounted to 4.
